This note sets out measurements from publication PMC3767657.

The target in assay [1] is HIV-1 integrase (IN) T174I, in virus particles (HIV-1 (NL4.3-based vector)). The assay can be described thus: cross-linking; purified virus (50 ng p24 equivalents) in PBS/0.25% Triton X-100 treated with BS3 for 20 min at room temperature, quenched with Tris-HCl pH 7.5, reducing SDS-PAGE, anti-IN Western blot; virus produced in the presence of DMSO or 1 uM GS-B, or cell-free virus treated with GS-B. (In general: In western blotting, separated proteins are transferred to a membrane and probed.)

Assay [2] addresses HIV-1 integrase (IN), wild type, in virus particles (HIV-1 (NL4.3-based vector)). Described as above.

By stoichiometry N is commonly meant a count of units in the complex or per binding partner. Regarding “HIV-1 integrase (IN) T174I, in virus particles (enzyme)”, the stoichiometry N in assay [1] amounted to 2.

As for “HIV-1 integrase (IN), wild type, in virus particles (enzyme)”, in assay [2], the stoichiometry N turned out to be 2.
